# The Human Domainome abundance scans (Beltran et al. 2025)
# ± gives the uncertainty stated by the source.
# B1: Ventral anterior homeobox 1, residues 102 to 157; numbered along this chain, Q5SQQ9 (parent)
# chain: RTRTSFTAEQLYRLEMEFQRCQYVVGRERTELARQLNLSETQVKVWFQNRRTKQKK
# Variants of: B1
# Test: abundance fitness (aPCA) (normalised: wild type 0, dead -1); higher = more abundant; growth selection in yeast, the domain comes from the species named
# Settings: Homo sapiens
row,Variant,abundance fitness
1,Y12A,0.044 ± 0.099
2,Y12T,0.018 ± 0.14
3,Y12C,-0.176 ± 0.2
4,Y12F,-0.13 ± 0.21
5,Y12L,-0.086 ± 0.12
6,Y12W,0.001 ± 0.15
7,Y12I,-0.188 ± 0.3
8,Y12S,0.069 ± 0.11
9,Y12P,-0.967 ± 0.21
10,Y12V,-0.085 ± 0.096
11,Y12M,0.102 ± 0.15
12,T7N,-0.105 ± 0.27
13,T7V,-0.466 ± 0.13
14,T7H,-0.407 ± 0.28
15,T7D,-0.043 ± 0.18
16,T7M,-0.452 ± 0.23
17,T7S,-0.158 ± 0.14
18,T7L,-0.704 ± 0.15
19,T7W,-0.925 ± 0.25
20,T7A,-0.411 ± 0.12
21,T7Y,-0.652 ± 0.34
22,T7C,-0.335 ± 0.18
23,T7I,-0.56 ± 0.21
24,T7F,-0.77 ± 0.27

row,Variant,abundance fitness
1,T7G,-0.311 ± 0.09
2,T7E,-0.279 ± 0.13
3,T7R,-0.499 ± 0.11
4,T7P,-0.734 ± 0.24
5,T7K,-0.589 ± 0.23
6,E9D,-0.135 ± 0.18
7,E9F,0.005 ± 0.16
8,E9K,-0.453 ± 0.29
9,E9W,-0.12 ± 0.13
10,E9M,-0.235 ± 0.18
11,E9A,-0.244 ± 0.13
12,E9Y,-0.398 ± 0.23
13,E9L,-0.439 ± 0.11
14,E9P,-0.669 ± 0.22
15,E9T,-0.464 ± 0.19
16,E9Q,-0.207 ± 0.21
17,E9V,-0.157 ± 0.11
18,E9H,-0.509 ± 0.25
19,E9S,-0.408 ± 0.14
20,E9C,-0.299 ± 0.18
21,E9I,-0.456 ± 0.21
22,E9R,-0.455 ± 0.11
23,E9N,-0.733 ± 0.34
24,S5C,-0.225 ± 0.16

row,Variant,abundance fitness
1,S5Y,-0.013 ± 0.22
2,S5E,0.326 ± 0.14
3,S5K,-0.747 ± 0.2
4,S5D,0.262 ± 0.14
5,S5G,-0.002 ± 0.092
6,S5H,-0.224 ± 0.28
7,S5L,-0.179 ± 0.15
8,S5M,0.08 ± 0.15
9,S5Q,0.028 ± 0.17
10,S5R,-0.597 ± 0.12
11,S5I,-0.177 ± 0.19
12,S5W,-0.189 ± 0.14
13,T4F,-0.347 ± 0.45
14,T4L,0.205 ± 0.13
15,T4K,-0.079 ± 0.19
16,T4Q,-0.11 ± 0.2
17,T4S,-0.058 ± 0.13
18,T4M,0.107 ± 0.23
19,T4C,-0.165 ± 0.18
20,T4E,0.169 ± 0.15
21,T4H,-0.49 ± 0.28
22,T4A,-0.188 ± 0.17
23,T4P,-0.074 ± 0.24
24,T4I,-0.193 ± 0.23

row,Variant,abundance fitness
1,T4G,-0.269 ± 0.099
2,T4D,-0.14 ± 0.2
3,T4W,-0.095 ± 0.14
4,T4N,0.033 ± 0.23
5,T4R,-0.35 ± 0.11
6,T4V,-0.092 ± 0.12
7,R13C,-0.161 ± 0.13
8,R13F,-0.29 ± 0.18
9,R13I,0.092 ± 0.18
10,R13K,-0.004 ± 0.29
11,R13Q,0.163 ± 0.18
12,R13T,-0.113 ± 0.13
13,R13M,-0.022 ± 0.2
14,R13P,-0.849 ± 0.15
15,R13W,-0.211 ± 0.18
16,R13V,-0.311 ± 0.15
17,R13N,-0.283 ± 0.2
18,R13A,0.089 ± 0.12
19,R13L,-0.068 ± 0.1
20,R13H,-0.066 ± 0.15
21,R13E,-0.513 ± 0.29
22,R13G,-0.207 ± 0.18
23,R13S,-0.074 ± 0.097
24,R13Y,-0.316 ± 0.19

row,Variant,abundance fitness
1,R3Y,0.071 ± 0.1
2,R3W,0.054 ± 0.16
3,R3V,0.096 ± 0.094
4,R3S,0.266 ± 0.084
5,L11F,-0.159 ± 0.16
6,L11Y,-0.335 ± 0.16
7,L11A,-0.075 ± 0.096
8,L11T,-0.149 ± 0.16
9,L11N,0.18 ± 0.17
10,L11R,-0.61 ± 0.12
11,L11H,0.005 ± 0.12
12,L11Q,0.231 ± 0.17
13,L11K,-0.274 ± 0.26
14,L11D,0.022 ± 0.12
15,L11W,-0.494 ± 0.16
16,L11E,0.308 ± 0.14
17,L11G,-0.254 ± 0.1
18,L11M,-0.172 ± 0.19
19,L11I,-0.059 ± 0.21
20,L11P,-0.893 ± 0.17
21,A8M,-0.104 ± 0.21
22,A8F,-0.473 ± 0.21
23,A8R,-0.332 ± 0.11
24,A8Y,-0.158 ± 0.29

row,Variant,abundance fitness
1,A8E,0 ± 0.16
2,A8N,0.059 ± 0.29
3,A8G,-0.205 ± 0.084
4,A8Q,-0.301 ± 0.2
5,A8I,-0.363 ± 0.4
6,A8V,-0.154 ± 0.11
7,A8L,-0.14 ± 0.11
8,A8C,-0.212 ± 0.17
9,A8W,-0.348 ± 0.16
10,A8H,-0.817 ± 0.39
11,A8S,-0.064 ± 0.13
12,A8P,-0.049 ± 0.19
13,E15C,-0.803 ± 0.32
14,E15D,-0.379 ± 0.22
15,E15G,-0.823 ± 0.14
16,E15A,-0.876 ± 0.17
17,E15H,-1.08 ± 0.44
18,E15F,-0.533 ± 0.33
19,E15L,-0.44 ± 0.22
20,E15M,-0.982 ± 0.27
21,F6Q,-0.347 ± 0.17
22,F6N,-0.43 ± 0.33
23,F6P,-0.337 ± 0.2
24,F6E,-0.559 ± 0.44

row,Variant,abundance fitness
1,F6I,-0.089 ± 0.27
2,F6R,-0.71 ± 0.12
3,F6V,-0.105 ± 0.14
4,F6D,-0.445 ± 0.31
5,F6S,-0.729 ± 0.14
6,F6T,-0.556 ± 0.16
7,F6H,-0.283 ± 0.25
8,F6C,-0.536 ± 0.26
9,F6K,-0.42 ± 0.33
10,F6W,-0.052 ± 0.12
11,F6L,-0.029 ± 0.1
12,F6M,0.049 ± 0.22
13,F6G,-0.427 ± 0.1
14,F6A,-0.616 ± 0.22
15,L14V,-0.619 ± 0.19
16,L14F,-0.789 ± 0.38
17,L14W,-0.747 ± 0.26
18,L14T,-0.843 ± 0.38
19,L14M,-0.368 ± 0.24
20,L14A,-0.708 ± 0.21
21,L14C,-0.518 ± 0.23
22,L14S,-0.906 ± 0.2
23,L14I,-0.54 ± 0.49
